# According to US20200283478A1 (Genentech, published 2020):
# Bridge positions count the residues as written; N and C are the ends. Square brackets hold non-standard residues; d marks the D form. Ends that are not written are not given here. * marks the point of attachment. 5FAM = O=C1OC2(c3ccc(O)cc3Oc3cc(O)ccc32)c2ccc(C(=O)*)cc21; Ach = 2-aminocyclohexane-1-carboxylic acid; hArg = N=C(N)NCCCC[C@H](N)C(=O)O; Dap = NC[C@H](N)C(=O)O; Pentanoyl = CCCCC(=O)*
# B1: Compound 97 (peptide)
# peptide: Ac-GSGCWNL[Dap]RIGSQGC-NH2
# modifications: disulfide 4-15
# SMILES: CC[C@H](C)[C@@H]1NC(=O)[C@H](CCCNC(=N)N)NC(=O)[C@H](CN)NC(=O)[C@H](CC(C)C)NC(=O)[C@H](CC(N)=O)NC(=O)[C@H](Cc2c[nH]c3ccccc23)NC(=O)[C@@H](NC(=O)CNC(=O)[C@H](CO)NC(=O)CNC(C)=O)CSSC[C@@H](C(N)=O)NC(=O)CNC(=O)[C@H](CCC(N)=O)NC(=O)[C@H](CO)NC(=O)CNC1=O
# notes: Two Cys, disulfide-cyclized; also called Ac-GSG-CWNL(Dpr)RIGSQGC-NH2
# B2: Compound 118 (peptide)
# peptide: Pentanoyl-WNLV[hArg]IGLTR-NH2
# SMILES: CCCCC(=O)N[C@@H](Cc1c[nH]c2ccccc12)C(=O)N[C@@H](CC(N)=O)C(=O)N[C@@H](CC(C)C)C(=O)N[C@H](C(=O)N[C@@H](CCCCNC(=N)N)C(=O)N[C@H](C(=O)NCC(=O)N[C@@H](CC(C)C)C(=O)N[C@H](C(=O)N[C@@H](CCCNC(=N)N)C(N)=O)[C@@H](C)O)[C@@H](C)CC)C(C)C
# notes: also called n-BuC(O)-WNLV(homoR)IGLTR-NH2
# B3: Compound 111 (peptide)
# peptide: Pentanoyl-WNLVRIGLLR-NH2
# SMILES: CCCCC(=O)N[C@@H](Cc1c[nH]c2ccccc12)C(=O)N[C@@H](CC(N)=O)C(=O)N[C@@H](CC(C)C)C(=O)N[C@H](C(=O)N[C@@H](CCCNC(=N)N)C(=O)N[C@H](C(=O)NCC(=O)N[C@@H](CC(C)C)C(=O)N[C@@H](CC(C)C)C(=O)N[C@@H](CCCNC(=N)N)C(N)=O)[C@@H](C)CC)C(C)C
# Target: T1, PCSK9 (proprotein convertase subtilisin/kexin type 9), His-tagged, full-length (human, UniProt Q8NBP7 31-692)
# T1 construct: Captured by the His tag (SPR Methods 1 and 2), amine-coupled (Method 3), or His-tagged in TR-FRET; also called His-PCSK9
# Assay: SPR, Method 3 (SensiQ Pioneer FE, target amine-coupled, gradient injection)
# Description: (§1) All assays were conducted at an analysis temperature of 20° C. Samples were held at 10° C. in the sample rack to prevent denaturation of PCSK9 proteins. […] All reagents were obtained from Sigma-Aldrich unless otherwise stated. The full set of peptides was analyzed using three closely related biosensor protocols that were expected to report equivalent affinity/kinetic parameters. The need for multiple protocols was related to the aggregation potential of some peptides. The buffer composition was largely conserved other than the addition of solubilizers such as dimethylsulfoxide (DMSO), 10 kDa polyvinylpyrrolidone (PVP) and 10 kDa carboxymethylated dextran (CM dextran).
# (§2) In this case both the PCSK9 and PCSK9Δhelix were immobilized by standard direct amine coupling according to the manufacturers recommendations onto a COOHV sensor chip yielding in excess of 2000RU of each covalently bound to separate sensing channels. The running buffer was reformulated to further reduce both aggregation and non-specific binding to the sensing surface and contained 50 mM HEPES, pH 7.2, containing 0.15 M NaCl, 3 mg/mL PVP, 1 mM EDTA, 0.005% Tween® 20, 1 mg/mL CM dextran and 5% DMSO. Each compound was prepared in running buffer at 20 μM, sonicated for 15 min, and a 5 μM sample of each was then prepared with attention to matching the concentration of dimethylsulfoxide of the final sample to that of the running buffer. Both 20 μM and 5 μM dilutions of each compound were analyzed by gradient injection. The injection was performed using the One Step injection mode at a flow rate of 100 μL/min with a 200 second dissociation time. […] Therefore all recorded binding curves were double referenced and fitted with a 1:1 affinity model using Qdat data analysis software from SensiQ Pioneer Inc.
# T1 sequence (Q8NBP7 31-692 limits assumed): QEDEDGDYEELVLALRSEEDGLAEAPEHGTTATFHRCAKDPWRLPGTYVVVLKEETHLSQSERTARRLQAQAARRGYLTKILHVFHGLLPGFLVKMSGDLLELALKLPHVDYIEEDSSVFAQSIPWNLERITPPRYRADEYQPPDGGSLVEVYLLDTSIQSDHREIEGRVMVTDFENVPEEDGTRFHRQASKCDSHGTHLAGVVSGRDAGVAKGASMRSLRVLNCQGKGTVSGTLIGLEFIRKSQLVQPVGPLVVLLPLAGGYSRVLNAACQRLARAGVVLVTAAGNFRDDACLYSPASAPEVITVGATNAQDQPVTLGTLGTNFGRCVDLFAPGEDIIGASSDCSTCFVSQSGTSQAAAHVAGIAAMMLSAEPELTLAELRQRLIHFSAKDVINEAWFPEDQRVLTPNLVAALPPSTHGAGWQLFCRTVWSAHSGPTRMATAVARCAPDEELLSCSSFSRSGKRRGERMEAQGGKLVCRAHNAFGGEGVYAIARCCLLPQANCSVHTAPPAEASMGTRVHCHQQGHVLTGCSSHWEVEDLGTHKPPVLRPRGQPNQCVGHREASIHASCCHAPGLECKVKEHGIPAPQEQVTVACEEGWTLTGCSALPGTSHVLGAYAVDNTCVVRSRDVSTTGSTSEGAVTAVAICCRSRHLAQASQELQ
row,Kd [µM],Binder
1,17.9,Ac-PWNLVRIGLLR-NH2 [Compound 52]
2,118,"Ac-CRL[Ach]WNLQRIGLPC-NH2 (disulfide 1-14 (inferred), Two Cys, disulfide-cyclized) [Compound 82]"
3,522,B1
4,223,Ac-WNLVRIGLLR-NH2 [Compound 53]
5,1.3,"Ac-CRLPWNLQRIGLPC-NH2 (disulfide 1-14 (inferred), Two Cys, disulfide-cyclized) [Compound 32]"
6,11,"Ac-CRLPWNLARIGLPC-NH2 (disulfide 1-14 (inferred), Two Cys, disulfide-cyclized) [Compound 73]"
7,117,Ac-ALMPWNLVRIGLLR-NH2 [Compound 45]
8,96.5,Ac-DLMPWNLVRIGLAR-NH2 [Compound 55]
9,4.47,"5FAM-SGSGCRLPWNLQRIGLPC-NH2 (disulfide 5-18 (inferred), Two Cys, disulfide-cyclized) [Compound 34]"
10,6.01,"5FAM-SGSGCFIPWNLQRIGLLC-NH2 (disulfide 5-18 (inferred), Two Cys, disulfide-cyclized) [Compound 33]"
11,5.83,"Ac-CFIPWNLQRIGLLC-NH2 (disulfide 1-14 (inferred), Two Cys, disulfide-cyclized) [Compound 31]"
12,26.2,Ac-MPWNLVRIGLLR-NH2 [Compound 51]
13,46.4,"Ac-FCLWNLKRIGAQCWF-NH2 (disulfide 2-13 (inferred), Two Cys, disulfide-cyclized) [Compound 96]"
14,16.1,Ac-LMPWNLVRIGLLR-NH2 [Compound 50]

# Target: T2, PCSK9Δhelix (human, UniProt Q8NBP7 31-152; Q8NBP7 168-692)
# T2 construct: Made by TEV cleavage of human PCSK9 M1-Q692 with an engineered TEV site; The new N-terminus of the catalytic domain is S-A168; also called His-PCSK9Δhelix; PCSK9 lacking the P' helix
# Assay: as above
# Description: as §1, §2
# T2 sequence (Q8NBP7 31-152, stated change not applied, chain 1 of 2): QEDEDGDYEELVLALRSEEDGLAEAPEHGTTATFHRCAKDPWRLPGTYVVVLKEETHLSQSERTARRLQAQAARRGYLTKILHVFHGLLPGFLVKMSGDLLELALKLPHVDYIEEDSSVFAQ
# T2 sequence (Q8NBP7 other isoform, or with tags, fused parts or gaps mutant, chain 2 of 2): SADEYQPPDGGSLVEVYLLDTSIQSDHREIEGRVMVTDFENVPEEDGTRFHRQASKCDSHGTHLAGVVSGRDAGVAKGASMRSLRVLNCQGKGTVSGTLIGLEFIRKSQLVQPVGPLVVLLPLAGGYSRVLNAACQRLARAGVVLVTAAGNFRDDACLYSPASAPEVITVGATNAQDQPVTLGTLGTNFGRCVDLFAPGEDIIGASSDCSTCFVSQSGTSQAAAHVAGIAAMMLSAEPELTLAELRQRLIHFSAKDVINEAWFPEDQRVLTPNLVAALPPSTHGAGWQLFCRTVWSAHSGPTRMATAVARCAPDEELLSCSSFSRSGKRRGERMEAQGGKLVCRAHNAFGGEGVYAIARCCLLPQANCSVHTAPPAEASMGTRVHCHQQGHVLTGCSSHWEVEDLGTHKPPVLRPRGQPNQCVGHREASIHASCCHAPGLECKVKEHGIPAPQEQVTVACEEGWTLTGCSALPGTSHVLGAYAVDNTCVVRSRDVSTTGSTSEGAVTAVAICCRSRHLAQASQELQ
row,Kd [µM],Binder
1,2.6,Ac-PWNLVRIGLLR-NH2 [Compound 52]
2,6.4,"Ac-CRL[Ach]WNLQRIGLPC-NH2 (disulfide 1-14 (inferred), Two Cys, disulfide-cyclized) [Compound 82]"
3,89.2,B1
4,33.8,Ac-WNLVRIGLLR-NH2 [Compound 53]
5,0.21,"Ac-CRLPWNLQRIGLPC-NH2 (disulfide 1-14 (inferred), Two Cys, disulfide-cyclized) [Compound 32]"
6,0.167,"Ac-CRLPWNLARIGLPC-NH2 (disulfide 1-14 (inferred), Two Cys, disulfide-cyclized) [Compound 73]"
7,8.2,Ac-ALMPWNLVRIGLLR-NH2 [Compound 45]
8,2.8,Ac-DLMPWNLVRIGLAR-NH2 [Compound 55]
9,5.28,"5FAM-SGSGCRLPWNLQRIGLPC-NH2 (disulfide 5-18 (inferred), Two Cys, disulfide-cyclized) [Compound 34]"
10,10,"5FAM-SGSGCFIPWNLQRIGLLC-NH2 (disulfide 5-18 (inferred), Two Cys, disulfide-cyclized) [Compound 33]"
11,3.01,"Ac-CFIPWNLQRIGLLC-NH2 (disulfide 1-14 (inferred), Two Cys, disulfide-cyclized) [Compound 31]"
12,2.7,Ac-MPWNLVRIGLLR-NH2 [Compound 51]
13,2.5,"Ac-FCLWNLKRIGAQCWF-NH2 (disulfide 2-13 (inferred), Two Cys, disulfide-cyclized) [Compound 96]"
14,1.6,Ac-LMPWNLVRIGLLR-NH2 [Compound 50]

# Target: T3, PCSK9Δhelix (human, Chemically biotinylated in the phage ELISAs; the site is not given.)
# T3 construct: construct M1-Q692 with engineered TEV site, cleaved by TEV; also called His-PCSK9Δhelix; open groove PCSK9Δhelix
# Assay: phage spot ELISA
# T3 sequence (prodomain, as listed by the source mutant limits assumed, chain 1 of 2): as the sequence (Q8NBP7 31-152, stated change not applied, chain 1 of 2) above
# T3 sequence (chain, as listed by the source mutant limits assumed, chain 2 of 2): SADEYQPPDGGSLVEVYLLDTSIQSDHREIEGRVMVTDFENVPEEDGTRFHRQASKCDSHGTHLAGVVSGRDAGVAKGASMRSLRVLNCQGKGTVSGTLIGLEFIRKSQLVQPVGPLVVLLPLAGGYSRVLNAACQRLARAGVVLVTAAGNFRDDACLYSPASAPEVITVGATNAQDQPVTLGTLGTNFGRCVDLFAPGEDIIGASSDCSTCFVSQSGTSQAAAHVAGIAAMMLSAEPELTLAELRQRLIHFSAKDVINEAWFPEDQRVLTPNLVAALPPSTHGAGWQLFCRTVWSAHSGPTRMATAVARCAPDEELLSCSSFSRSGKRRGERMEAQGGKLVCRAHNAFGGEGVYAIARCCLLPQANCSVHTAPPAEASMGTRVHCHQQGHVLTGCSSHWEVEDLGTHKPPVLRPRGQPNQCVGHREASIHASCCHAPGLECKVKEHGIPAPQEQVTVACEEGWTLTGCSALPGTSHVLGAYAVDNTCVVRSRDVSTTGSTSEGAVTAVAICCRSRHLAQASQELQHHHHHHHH
ELISA,s/n ratio,Binder
2.09,18.2,SGACVKPCIAGNIIR [SEQ ID NO 388]
3.23,14.7,SGDLMPWNLVRIGLLR [SEQ ID NO 389]
3.07,8.48,"SGCFIPWNLQRIGLLC (not fully specified (C-terminus, bridges); cysteine pairing not given here) [SEQ ID NO 383]"
2.21,15.1,SGCSDLWNLARIYPMC [SEQ ID NO 391]
1.94,12.3,SGGACPWNLERIGLSC [SEQ ID NO 384]
2.88,20.7,SGRCLNHLISGNMNSC [SEQ ID NO 387]
3.19,21.3,SGGSMPWNLERIFALH [SEQ ID NO 390]

# Target: T4, proprotein convertase subtilisin/kexin type 9 (PCSK9) (human, UniProt Q8NBP7 31-692)
# T4 construct: His-tagged full-length PCSK9 in TR-FRET and SPR, biotinylated in phage ELISA; secreted protein is autoprocessed (prodomain plus catalytic/CRD chain starting at S153); also called rec.PCSK9; His-PCSK9
# Assay: phage spot ELISA
# T4 sequence (Q8NBP7 other isoform, or with tags, fused parts or gaps limits assumed): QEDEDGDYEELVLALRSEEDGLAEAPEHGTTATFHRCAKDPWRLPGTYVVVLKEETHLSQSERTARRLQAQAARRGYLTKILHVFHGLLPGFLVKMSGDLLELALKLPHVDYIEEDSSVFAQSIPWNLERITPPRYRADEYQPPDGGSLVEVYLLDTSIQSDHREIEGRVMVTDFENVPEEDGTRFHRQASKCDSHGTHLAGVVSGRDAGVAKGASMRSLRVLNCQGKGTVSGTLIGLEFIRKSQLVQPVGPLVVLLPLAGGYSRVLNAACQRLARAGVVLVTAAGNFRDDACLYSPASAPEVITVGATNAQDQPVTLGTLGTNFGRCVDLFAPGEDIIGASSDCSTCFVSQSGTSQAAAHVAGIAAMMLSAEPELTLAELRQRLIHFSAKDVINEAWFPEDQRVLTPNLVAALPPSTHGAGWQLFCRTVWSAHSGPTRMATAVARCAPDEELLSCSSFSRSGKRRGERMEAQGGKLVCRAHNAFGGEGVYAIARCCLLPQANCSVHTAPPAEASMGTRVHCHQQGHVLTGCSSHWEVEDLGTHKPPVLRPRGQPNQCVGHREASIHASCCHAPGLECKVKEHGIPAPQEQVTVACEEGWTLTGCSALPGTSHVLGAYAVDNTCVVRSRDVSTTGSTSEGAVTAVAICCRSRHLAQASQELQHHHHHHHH
ELISA,s/n ratio,Binder
1.25,9.44,SGACVKPCIAGNIIR [SEQ ID NO 388]
3.16,16.5,SGDLMPWNLVRIGLLR [SEQ ID NO 389]
3,8.11,"SGCFIPWNLQRIGLLC (not fully specified (C-terminus, bridges); cysteine pairing not given here) [SEQ ID NO 383]"
0.514,3.59,SGCSDLWNLARIYPMC [SEQ ID NO 391]
1.42,9.77,SGGACPWNLERIGLSC [SEQ ID NO 384]
2.62,17.5,SGRCLNHLISGNMNSC [SEQ ID NO 387]
0.472,3.42,SGDFIPWNLVRIGLLR [SEQ ID NO 385]
2.74,15.8,SGGSMPWNLERIFALH [SEQ ID NO 390]

# Target: T2, PCSK9Δhelix
# Assay: TR-FRET competition; competitor Ab20 binding to His-PCSK9Δhelix
# Description: (§3) Signal generation in the PCSK9 binding assays was dependent upon the binding interaction to bring into close proximity the His-tag on the PCSK9 and the Fc-tag on the ligand. Anti-His-APC was bound to the His-tag, and anti-Fc-europium was bound to the Fc-tag.
# (§4) Compounds were solubilized and dilutions were prepared in DMSO. […] The plate was centrifuged to mix the well contents and allowed to incubate for 30 min. […] The normalized TR-FRET ratios were plotted as a function of the compound concentrations, and the IC₅₀ values were determined using a 4-parameter logistic regression.
row,IC50 [µM],Binder
1,1.52,Ac-TVFTSWEEYLDWVGSGKLWNLGR-NH2 [Compound 4]
2,11.1,Ac-TVFTSWEEYLDWVGSGKLWNLG-NH2 [Compound 5]
3,18.6,Ac-TVFTSWEEYLDWVGSGKLWN-NH2 [Compound 7]
4,0.049,Ac-TVFTSWEEYLDWVGGSGKLWNLGRV-NH2 [Compound 8]
5,0.065,Ac-TVFTSWEEYLDWVGSGGKLWNLGRV-NH2 [Compound 9]
6,0.021,Ac-TVFTSWEEYLDWVGSGKLWNLGRV-NH2 [Compound 1]
7,10,Ac-TVFTSWEEYLDWVGSGKLWNL-NH2 [Compound 6]

# Target: T1, PCSK9 (proprotein convertase …)
# Assay: TR-FRET competition; competitor EGF(A)-Fc binding to His-PCSK9
row,IC50 [µM],Binder
1,> 50,Ac-PWNLVRIGLLR-NH2 [Compound 52]
2,> 50,Ac-DLMPWNLVRIGL-NH2 [Compound 47]
3,> 50,B2
4,> 50,Ac-WNLVRIGLLR-NH2 [Compound 53]
5,> 50,Ac-WNLVRIGL-NH2 [Compound 120]
6,> 50,Ac-ALMPWNLVRIGLLR-NH2 [Compound 45]
7,> 50,Ac-DLMPWNLVRIGLAR-NH2 [Compound 55]
8,> 50,B3
9,> 50,Ac-DLMPWNLVRIG-NH2 [Compound 48]
10,> 50,Ac-MPWNLVRIGLLR-NH2 [Compound 51]
11,> 50,Ac-DLMPWNLVRI-NH2 [Compound 49]
12,> 50,Ac-LMPWNLVRIGLLR-NH2 [Compound 50]
13,> 50,Ac-PWNLVRIGL-NH2 [Compound 119]

# Target: T2, PCSK9Δhelix
# Assay: TR-FRET competition; competitor Ab20 binding to His-PCSK9Δhelix
# Remark: another data set of the same source
# Description: as §3, §4
row,IC50 [µM],Binder
1,10.2,Ac-PWNLVRIGLLR-NH2 [Compound 52]
2,12.6,Ac-DLMPWNLVRIGL-NH2 [Compound 47]
3,1.4,B2
4,33.1,Ac-WNLVRIGLLR-NH2 [Compound 53]
5,49.5,Ac-WNLVRIGL-NH2 [Compound 120]
6,2.02,Ac-ALMPWNLVRIGLLR-NH2 [Compound 45]
7,9.7,Ac-DLMPWNLVRIGLAR-NH2 [Compound 55]
8,4.9,B3
9,49.5,Ac-DLMPWNLVRIG-NH2 [Compound 48]
10,4.69,Ac-MPWNLVRIGLLR-NH2 [Compound 51]
11,49.5,Ac-DLMPWNLVRI-NH2 [Compound 49]
12,2.66,Ac-LMPWNLVRIGLLR-NH2 [Compound 50]
13,49.5,Ac-PWNLVRIGL-NH2 [Compound 119]

# Target: T1, PCSK9 (proprotein convertase …)
# Assay: TR-FRET competition; competitor EGF(A)-Fc binding to His-PCSK9
# Remark: another data set of the same source
# Description: as §3, §4
row,IC50 [µM],Binder
1,0.49,Ac-TVFTSWEEYLDWVGSGKLWNLGR-NH2 [Compound 4]
2,0.72,Ac-TVFTSWEEYLDWVGSGKLWNLG-NH2 [Compound 5]
3,0.5,Ac-TVFTSWEEYLDWVGSGKLWN-NH2 [Compound 7]
4,1.03,Ac-TVFTSWEEYLDWVGGSGKLWNLGRV-NH2 [Compound 8]
5,0.39,Ac-TVFTSWEEYLDWVGSGGKLWNLGRV-NH2 [Compound 9]
6,0.388,Ac-TVFTSWEEYLDWVGSGKLWNLGRV-NH2 [Compound 1]
7,0.74,Ac-TVFTSWEEYLDWVGSGKLWNL-NH2 [Compound 6]
